Patent US20190022244A1 (BIOASIS TECHNOLOGIES, published 2019)

Biological target: T1, human N-acetylated-alpha-linked acidic dipeptidase-like protein 2 (NAALADL2) (human, UniProt Q58DX5 1-795)
T1 construct: also called human NAALADL2 receptor; NAALADL2 polypeptide
T1 sequence: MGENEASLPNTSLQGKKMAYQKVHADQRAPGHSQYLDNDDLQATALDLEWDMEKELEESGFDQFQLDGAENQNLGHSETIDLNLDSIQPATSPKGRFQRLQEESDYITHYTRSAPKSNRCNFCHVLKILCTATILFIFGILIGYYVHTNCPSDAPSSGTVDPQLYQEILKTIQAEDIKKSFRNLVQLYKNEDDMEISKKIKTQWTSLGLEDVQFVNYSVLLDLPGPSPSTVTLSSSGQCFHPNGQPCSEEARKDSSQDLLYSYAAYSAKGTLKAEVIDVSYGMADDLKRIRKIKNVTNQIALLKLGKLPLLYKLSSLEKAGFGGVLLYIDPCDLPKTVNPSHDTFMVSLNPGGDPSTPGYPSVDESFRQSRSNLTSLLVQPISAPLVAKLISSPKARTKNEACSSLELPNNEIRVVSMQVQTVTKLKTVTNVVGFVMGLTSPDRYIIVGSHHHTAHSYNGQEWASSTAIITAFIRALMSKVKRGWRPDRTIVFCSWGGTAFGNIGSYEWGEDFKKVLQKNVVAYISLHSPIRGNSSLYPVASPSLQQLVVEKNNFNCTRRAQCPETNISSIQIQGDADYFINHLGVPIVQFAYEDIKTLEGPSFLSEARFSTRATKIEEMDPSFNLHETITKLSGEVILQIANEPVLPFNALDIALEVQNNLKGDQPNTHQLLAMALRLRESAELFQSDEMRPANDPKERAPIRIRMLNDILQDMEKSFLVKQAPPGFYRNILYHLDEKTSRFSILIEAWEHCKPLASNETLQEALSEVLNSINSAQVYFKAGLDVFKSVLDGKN
Assay: EGS cross-linking on U87 cells, then reciprocal immunoprecipitation (anti-MTf L235 or anti-NAALADL2 N18+L18) and immunoblot with the complementary antibody
Experimental: Cells were pulsed with 1 μl of 7.1 mg/ml a human melanotransferrin (MTf) peptide ([…]; SEQ ID NO:2) and 4 μl of NTA-Fe, and shaken gently at 4° C. for 20 minutes to allow binding. The supernatant was discarded and the cells were washed 2× with 5 ml of PBS at 4° C. Cross-linker solution (6 ml of 3.7 mM EGS; Thermo Scientific, Cat #87786) was added to each flask, and the cells were shaken gently at 4° C. for 2 hours.
The supernatant was discarded, and 2 ml of RIPA buffer with 1X HALT protease inhibitor cocktail was added to lyse the cells and quench the cross-linker. The cells were shaken vigorously at room temperature for 5 minutes, and a cell scraper was used to lyse and completely detach the cell lysate from the plate.

binding result: binds
B1: human melanotransferrin (MTf) peptide (DSSHAFTLDELR; SEQ ID NO:2) (peptide)
peptide: DSSHAFTLDELR
notes: 12-residue fragment of human melanotransferrin (p97); It was pulsed onto U87 cells together with NTA-Fe; also called human MTf peptide; human MTf polypeptide
